The target of this assay is Sulfolobus acidocaldarius soluble FlaF (sFlaF) (Sulfolobus acidocaldarius). The experiment in a line: SEC.

Regarding “Sulfolobus acidocaldarius soluble FlaF (sFlaF) (domain or fragment)”, the stoichiometry N was 2.
